Test results: patent US9657091 (AC IMMUNE S A, dated 2017)
Substitutions are numbered along the chain they refer to.

B1: humanized antibody hACl-36-2B6-Ab1 (IgG4) (antibody, V domains shown)
VH: QVQLVQSGAEVKKPGSSVKVSCKASGYTFTDYYMNWVRQAPGQGLEWIGDINPNRGGTTYNQKFKGRVTITVDKSTSTAYMELSSLRSEDTAVYYCASYYAVGYWGQGTTVTVSS
VL: DIVMTQTPLSLPVTPGEPASISCRSSQSLVHSHGKTYLHWYLQKPGQSPQLLIYKVSNRFSGVPDRFSGSGSGTDFTLKISRVEAEDVGVYFCSQTAHFPYTFGGGTKVEIKR
notes: Humanized IgG4, kappa; also called 2B6A10C11
B2: humanized antibody hACl-36-3A8-Ab1 (IgG4) (antibody, V domains shown)
VH: B1 VH
VL: B1 VL with S28R
notes: Humanized IgG4, kappa; Tested as a supernatant containing the antibody; also called 3A8A12G7

Legend:
[1] = molecular target: T1, Tau-derived peptide Tau401-418, not phosphorylated (T4.6) (human); experiment: direct ELISA on plate-coated peptide (10 ug/mL), AP-conjugated anti-human IgG, O.D. at 405 nm
T1 construct: it is called the non-phosphorylated version of the same peptide as T4.5 (Tau401-418); also called corresponding non-phosphorylated Tau peptide
T1 peptide: GDTSPRHLSNVSSTGSID
Experimental: Binding of hACl-36-2B6-Ab1 and hACl-36-3A8-Ab1 to T4 Peptides by ELISA 1.1. Method 1.1.1 Phospho-Tau Binding Assay To test the binding of the antibody to pTau, an ELISA assay was used. Nunc MaxiSorp 96-well plates (Nunc, Denmark) were coated with 10 µg/mL of the Tau-derived peptide Tau401-418, phosphorylated (T4.5) or not (T4.6) on serine 409. Coating was done overnight in phosphate-buffered saline (PBS; Sigma-Aldrich, Switzerland) at 4° C. Plates were washed thoroughly with 0.05% Tween20/PBS and then blocked with 1% bovine serum albumin (BSA; Sigma-Aldrich) in 0.05% Tween20/PBS for 1 hr at 37° C. The supernatant containing the antibody being tested was then added in 8 two-fold dilutions, starting at 0.5 µg/mL, and incubated for 2 hr at 37° C. Plates were then washed as described previously, and an alkaline phosphatase (AP) conjugated goat anti-human IgG (Jackson ImmunoResearch Laboratories, England) was added at 1/2,000 dilution in 0.05% Tween20/PBS for 2 hr at 37° C. After washing, plates were incubated with p-nitrophenyl phosphate disodium hexahydrate (pNPP; Sigma-Aldrich, Switzerland) phosphatase substrate solution, and read at 405 nm following 1 hr incubation using a microplate reader (Tecan, Switzerland). Results are expressed as optical density (O.D.). […]

[2] = molecular target: Tau-derived peptide Tau401-418, phosphorylated (T4.5) (human); experiment: SPR (Biacore T100), antibody captured via Protein G on CM7 chip, peptide T4.5 as analyte 50-800 nM, single-cycle kinetics, 1:1 Langmuir fit
Sequence of Tau-derived peptide Tau401-418, phosphorylated (T4.5) (human) (peptide, as listed by the source): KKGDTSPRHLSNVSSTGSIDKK

| binding result [1] | Kd [2] | koff [2] | kon [2] | Binder |
| --- | --- | --- | --- | --- |
| no binding (tested: 0.5 ug/mL) | 67 nM | 0.0036 s⁻¹ | 54000 M⁻¹ s⁻¹ | B1 |
| no binding (tested: 0.5 ug/mL) |  |  |  | B2 |
